This assay concerns the target VaERF16-GFP (Vitis amurensis 'Shuang You').

In turn, VaMYB306-HA (natural protein) yielded a dual-luciferase assay in tobacco leaves: activation of the VaPDF1.2 promoter (LUC/REN) by 62-SK-VaERF16 and 62-SK-VaMYB306 co-expressed (untagged full-length effectors) of 3.5 fold.
